Assay [1] addresses recombinant human HER2 protein HER2-ECD with His-tag (human) (UniProt P04626). The assay is described as follows: ELISA on coated HER2-ECD, 11-point dilution from 1000 ng/ml.
Assay [2] has the same target. The assay is described as follows: ELISA on coated HER2-ECD, average of 3 independent assays, single site fit. (ELISA stands for enzyme-linked immunosorbent assay.)

By Kd is commonly meant a measure of binding affinity in units of concentration.

RC48-vc-MMAF, sequence (VH): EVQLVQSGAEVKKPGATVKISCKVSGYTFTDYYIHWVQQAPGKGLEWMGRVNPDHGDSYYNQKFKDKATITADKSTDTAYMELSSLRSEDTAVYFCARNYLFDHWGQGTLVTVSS
RC48-vc-MMAF, sequence (VL): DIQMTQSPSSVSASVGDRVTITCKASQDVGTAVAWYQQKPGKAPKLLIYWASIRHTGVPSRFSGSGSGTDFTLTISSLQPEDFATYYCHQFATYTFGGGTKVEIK
RC48-vc-MMAE, sequence (VH): as the sequence (VH) above
RC48-vc-MMAE, sequence (VL): as the sequence (VL) above
humanized anti-HER2 antibody RC48, sequence (VH): as the sequence (VH) above
humanized anti-HER2 antibody RC48, sequence (VL): as the sequence (VL) above

In the case of RC48-vc-MMAE, in assay [1], the Affinity is 2.24 ng/mL and the Molar equivalent came to 15.2 pmol/L. For RC48-vc-MMAF, in that order: 3.35 ng/mL and 13.5 pmol/L. Turning to human-murine chimeric antibody cRC48, the dissociation constant Kd in assay [2] was 0.077 nM. For the substance humanized anti-HER2 antibody RC48, the Kd in assay [2] stood at 0.044 nM.

Source of the values: patent publication US20160304621A1.
